Target: ecto-FLRT3 (immobilized for SPR) (UniProt Q8BGT1)
Test: SPR

UniProt Q8BGT1, sequence (Q8BGT1 29-528): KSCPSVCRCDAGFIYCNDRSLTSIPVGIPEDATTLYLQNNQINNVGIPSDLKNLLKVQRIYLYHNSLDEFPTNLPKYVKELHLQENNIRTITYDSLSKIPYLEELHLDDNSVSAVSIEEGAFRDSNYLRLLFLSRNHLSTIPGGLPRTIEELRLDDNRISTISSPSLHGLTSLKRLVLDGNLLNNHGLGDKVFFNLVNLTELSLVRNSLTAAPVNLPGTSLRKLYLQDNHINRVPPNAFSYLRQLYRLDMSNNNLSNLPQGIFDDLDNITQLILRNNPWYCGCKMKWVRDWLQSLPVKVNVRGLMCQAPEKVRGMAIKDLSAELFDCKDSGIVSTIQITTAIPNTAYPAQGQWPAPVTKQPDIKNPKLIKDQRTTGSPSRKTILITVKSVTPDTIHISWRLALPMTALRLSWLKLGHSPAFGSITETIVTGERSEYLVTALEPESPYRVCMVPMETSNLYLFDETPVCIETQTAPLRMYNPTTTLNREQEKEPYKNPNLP

Substance “ecto-LPHN3-Fc (from UniProt Q80TS3 20-1537) (Fc fusion)” has a Kd of 14.7 nM.
